We go through one molecule from publication PMC10902388 (2024).

The target of this assay is MBP-16E6(4C4S) (MBP-GGGGS-TEV-16E6, construct used in SPR) (HPV16, UniProt P03126 1-158, C87S | C104S | C118S | C147S). The experiment in a line: SPR.

B1: full-length human E6AP (C-terminal TEV-6xHis-Avi) (enzyme)
chain: MEKLHQCYWKSGEPQSDDIEASRMKRAAAKHLIERYYHQLTEGCGNEACTNEFCASCPTFLRMDNNAAAIKALELYKINAKLCDPHPSKKGASSAYLENSKGAPNNSCSEIKMNKKGARIDFKDVTYLTEEKVYEILELCREREDYSPLIRVIGRVFSSAEALVQSFRKVKQHTKEELKSLQAKDEDKDEDEKEKAACSAAAMEEDSEASSSRIGDSSQGDNNLQKLGPDDVSVDIDAIRRVYTRLLSNEKIETAFLNALVYLSPNVECDLTYHNVYSRDPNYLNLFIIVMENRNLHSPEYLEMALPLFCKAMSKLPLAAQGKLIRLWSKYNADQIRRMMETFQQLITYKVISNEFNSRNLVNDDDAIVAASKCLKMVYYANVVGGEVDTNHNEEDDEEPIPESSELTLQELLGEERRNKKGPRVDPLETELGVKTLDCRKPLIPFEEFINEPLNEVLEMDKDYTFFKVETENKFSFMTCPFILNAVTKNLGLYYDNRIRMYSERRITVLYSLVQGQQLNPYLRLKVRRDHIIDDALVRLEMIAMENPADLKKQLYVEFEGEQGVDEGGVSKEFFQLVVEEIFNPDIGMFTYDESTKLFWFNPSSFETEGQFTLIGIVLGLAIYNNCILDVHFPMVVYRKLMGKKGTFRDLGDSHPVLYQSLKDLLEYEGNVEDDMMITFQISQTDLFGNPMMYDLKENGDKIPITNENRKEFVNLYSDYILNKSVEKQFKAFRRGFHMVTNESPLKYLFRPEEIELLICGSRNLDFQALEETTEYDGGYTRDSVLIREFWEIVHSFTDEQKRLFLQFTTGTDRAPVGGLGKLKMIIAKNGPDTERLPTSHTCFNVLLLPEYSSKEKLKERLLKAITYAKGFGML
modifications: biotin on the Avi tag (BirA biotin-protein ligase) in the SPR experiments
Consider B1, for which the koff (usually the rate constant with which the complex falls apart) worked out at 0.0004 s⁻¹.
